{"source": "patent US20220211812A1", "about": "(Bristol-Myers Squibb, published 2022)", "binders": {"B1": {"name": "AQ1-dKdKdKdKdKdK-Glu^γ-C13-COOH (ligand)", "chain 1": "XLYSALANKCCHVGCTKRSLARFC", "chain 2": "ASWMEEVIKLCGRELVRAQIAICGMSTWS", "peptide": "KKKKKKE", "modifications": "not fully specified; dK = D-lysine (six); Glu^γ bonded by amide to fatty acid -C13-COOH; oxime-linked to pAcF of the A chain; pAcF (para-acetyl-L-phenylalanine) at position 1, oxime-linked to PK enhancer dKdKdKdKdKdK-Glu^γ-C13-COOH"}, "B2": {"name": "AQ1-EEEGGG-Glu^γ-C14-COOH (ligand)", "chain 1": "XLYSALANKCCHVGCTKRSLARFC", "chain 2": "ASWMEEVIKLCGRELVRAQIAICGMSTWS", "peptide": "EEEGGGE", "modifications": "not fully specified; Glu^γ bonded by amide to fatty acid -C14-COOH; oxime-linked to pAcF of the A chain; pAcF (para-acetyl-L-phenylalanine) at position 1, oxime-linked to PK enhancer EEEGGG-Glu^γ-C14-COOH"}, "B3": {"name": "AQ1-EEEGGG-Glu^γ-C13-COOH (ligand)", "chain 1": "XLYSALANKCCHVGCTKRSLARFC", "chain 2": "ASWMEEVIKLCGRELVRAQIAICGMSTWS", "peptide": "EEEGGGE", "modifications": "not fully specified; Glu^γ bonded by amide to fatty acid -C13-COOH; oxime-linked to pAcF of the A chain; pAcF (para-acetyl-L-phenylalanine) at position 1, oxime-linked to PK enhancer EEEGGG-Glu^γ-C13-COOH"}, "B4": {"name": "AQ1-KKSGGSGG-Glu^γ-C13-COOH (ligand)", "chain 1": "XLYSALANKCCHVGCTKRSLARFC", "chain 2": "ASWMEEVIKLCGRELVRAQIAICGMSTWS", "peptide": "KKSGGSGGE", "modifications": "not fully specified; Glu^γ bonded by amide to fatty acid -C13-COOH; oxime-linked to pAcF of the A chain; pAcF (para-acetyl-L-phenylalanine) at position 1, oxime-linked to PK enhancer KKSGGSGG-Glu^γ-C13-COOH"}, "B5": {"name": "AQ1-EEEGGG-Glu^γ-C15-CH3 (ligand)", "chain 1": "XLYSALANKCCHVGCTKRSLARFC", "chain 2": "ASWMEEVIKLCGRELVRAQIAICGMSTWS", "peptide": "EEEGGGE", "modifications": "not fully specified; Glu^γ bonded by amide to fatty acid -C15-CH3; oxime-linked to pAcF of the A chain; pAcF (para-acetyl-L-phenylalanine) at position 1, oxime-linked to PK enhancer EEEGGG-Glu^γ-C15-CH3"}, "B6": {"name": "AQ1-EEEGGG-Glu^γ-C13-CH3 (ligand)", "chain 1": "XLYSALANKCCHVGCTKRSLARFC", "chain 2": "ASWMEEVIKLCGRELVRAQIAICGMSTWS", "peptide": "EEEGGGE", "modifications": "not fully specified; Glu^γ bonded by amide to fatty acid -C13-CH3; oxime-linked to pAcF of the A chain; pAcF (para-acetyl-L-phenylalanine) at position 1, oxime-linked to PK enhancer EEEGGG-Glu^γ-C13-CH3"}, "B7": {"name": "AQ1-GGGGS-Glu^γ-C13-COOH (ligand)", "chain 1": "XLYSALANKCCHVGCTKRSLARFC", "chain 2": "ASWMEEVIKLCGRELVRAQIAICGMSTWS", "peptide": "GGGGSE", "modifications": "not fully specified; Glu^γ bonded by amide to fatty acid -C13-COOH; oxime-linked to pAcF of the A chain; pAcF (para-acetyl-L-phenylalanine) at position 1, oxime-linked to PK enhancer GGGGS-Glu^γ-C13-COOH"}, "B8": {"name": "AQ1-KKSGGSGG-Glu^α-C13-COOH (ligand)", "chain 1": "XLYSALANKCCHVGCTKRSLARFC", "chain 2": "ASWMEEVIKLCGRELVRAQIAICGMSTWS", "peptide": "KKSGGSGGE", "modifications": "not fully specified; Glu^α linked to fatty acid -C13-COOH; oxime-linked to pAcF of the A chain; pAcF (para-acetyl-L-phenylalanine) at position 1, oxime-linked to PK enhancer KKSGGSGG-Glu^α-C13-COOH"}, "B9": {"name": "AQ1-KKKGGG-Glu^γ-C13-COOH (ligand)", "chain 1": "XLYSALANKCCHVGCTKRSLARFC", "chain 2": "ASWMEEVIKLCGRELVRAQIAICGMSTWS", "peptide": "KKKGGGE", "modifications": "not fully specified; Glu^γ bonded by amide to fatty acid -C13-COOH; oxime-linked to pAcF of the A chain; pAcF (para-acetyl-L-phenylalanine) at position 1, oxime-linked to PK enhancer KKKGGG-Glu^γ-C13-COOH"}, "B10": {"name": "AQ1-KKSGGSGGEE-Glu^γ-C13-COOH (ligand)", "chain 1": "XLYSALANKCCHVGCTKRSLARFC", "chain 2": "ASWMEEVIKLCGRELVRAQIAICGMSTWS", "peptide": "KKSGGSGGEEE", "modifications": "not fully specified; Glu^γ bonded by amide to fatty acid -C13-COOH; oxime-linked to pAcF of the A chain; pAcF (para-acetyl-L-phenylalanine) at position 1, oxime-linked to PK enhancer KKSGGSGGEE-Glu^γ-C13-COOH"}, "B11": {"name": "AQ1-KSGGSGG-Glu^γ-C13-COOH (ligand)", "chain 1": "XLYSALANKCCHVGCTKRSLARFC", "chain 2": "ASWMEEVIKLCGRELVRAQIAICGMSTWS", "peptide": "KSGGSGGE", "modifications": "not fully specified; Glu^γ bonded by amide to fatty acid -C13-COOH; oxime-linked to pAcF of the A chain; pAcF (para-acetyl-L-phenylalanine) at position 1, oxime-linked to PK enhancer KSGGSGG-Glu^γ-C13-COOH"}, "B12": {"name": "AQ1-Sar-Sar-Sar-Sar-Ser-Sar-Sar-Sar-Sar-Glu^γ-C13-COOH (ligand)", "chain 1": "XLYSALANKCCHVGCTKRSLARFC", "chain 2": "ASWMEEVIKLCGRELVRAQIAICGMSTWS", "peptide": "XXXXSXXXXE", "modifications": "not fully specified; Sar = sarcosine (N-methylglycine); Glu^γ bonded by amide to fatty acid -C13-COOH; oxime-linked to pAcF of the A chain; pAcF (para-acetyl-L-phenylalanine) at position 1, oxime-linked to PK enhancer Sar-Sar-Sar-Sar-Ser-Sar-Sar-Sar-Sar-Glu^γ-C13-COOH"}, "B13": {"name": "AQ1-EEEGGG-Glu^γ-C15-COOH (ligand)", "chain 1": "XLYSALANKCCHVGCTKRSLARFC", "chain 2": "ASWMEEVIKLCGRELVRAQIAICGMSTWS", "peptide": "EEEGGGE", "modifications": "not fully specified; Glu^γ bonded by amide to fatty acid -C15-COOH; oxime-linked to pAcF of the A chain; pAcF (para-acetyl-L-phenylalanine) at position 1, oxime-linked to PK enhancer EEEGGG-Glu^γ-C15-COOH"}, "B14": {"name": "AQ1-GSGSGSGS-Glu^γ-C15-COOH (ligand)", "chain 1": "XLYSALANKCCHVGCTKRSLARFC", "chain 2": "ASWMEEVIKLCGRELVRAQIAICGMSTWS", "peptide": "GSGSGSGSE", "modifications": "not fully specified; Glu^γ bonded by amide to fatty acid -C15-COOH; oxime-linked to pAcF of the A chain; pAcF (para-acetyl-L-phenylalanine) at position 1, oxime-linked to PK enhancer GSGSGSGS-Glu^γ-C15-COOH"}, "B15": {"name": "AQ1-KKSAGSAG-Glu^γ-C13-COOH (ligand)", "chain 1": "XLYSALANKCCHVGCTKRSLARFC", "chain 2": "ASWMEEVIKLCGRELVRAQIAICGMSTWS", "peptide": "KKSAGSAGE", "modifications": "not fully specified; Glu^γ bonded by amide to fatty acid -C13-COOH; oxime-linked to pAcF of the A chain; pAcF (para-acetyl-L-phenylalanine) at position 1, oxime-linked to PK enhancer KKSAGSAG-Glu^γ-C13-COOH"}, "B16": {"name": "AQ1-GGGGS-Glu^γ-C15-COOH (ligand)", "chain 1": "XLYSALANKCCHVGCTKRSLARFC", "chain 2": "ASWMEEVIKLCGRELVRAQIAICGMSTWS", "peptide": "GGGGSE", "modifications": "not fully specified; Glu^γ bonded by amide to fatty acid -C15-COOH; oxime-linked to pAcF of the A chain; pAcF (para-acetyl-L-phenylalanine) at position 1, oxime-linked to PK enhancer GGGGS-Glu^γ-C15-COOH"}}, "data": [{"biological_target": "T1, human RXFP1 receptor (human, UniProt Q9HBX9 1-757)", "T1 sequence (looked up)": "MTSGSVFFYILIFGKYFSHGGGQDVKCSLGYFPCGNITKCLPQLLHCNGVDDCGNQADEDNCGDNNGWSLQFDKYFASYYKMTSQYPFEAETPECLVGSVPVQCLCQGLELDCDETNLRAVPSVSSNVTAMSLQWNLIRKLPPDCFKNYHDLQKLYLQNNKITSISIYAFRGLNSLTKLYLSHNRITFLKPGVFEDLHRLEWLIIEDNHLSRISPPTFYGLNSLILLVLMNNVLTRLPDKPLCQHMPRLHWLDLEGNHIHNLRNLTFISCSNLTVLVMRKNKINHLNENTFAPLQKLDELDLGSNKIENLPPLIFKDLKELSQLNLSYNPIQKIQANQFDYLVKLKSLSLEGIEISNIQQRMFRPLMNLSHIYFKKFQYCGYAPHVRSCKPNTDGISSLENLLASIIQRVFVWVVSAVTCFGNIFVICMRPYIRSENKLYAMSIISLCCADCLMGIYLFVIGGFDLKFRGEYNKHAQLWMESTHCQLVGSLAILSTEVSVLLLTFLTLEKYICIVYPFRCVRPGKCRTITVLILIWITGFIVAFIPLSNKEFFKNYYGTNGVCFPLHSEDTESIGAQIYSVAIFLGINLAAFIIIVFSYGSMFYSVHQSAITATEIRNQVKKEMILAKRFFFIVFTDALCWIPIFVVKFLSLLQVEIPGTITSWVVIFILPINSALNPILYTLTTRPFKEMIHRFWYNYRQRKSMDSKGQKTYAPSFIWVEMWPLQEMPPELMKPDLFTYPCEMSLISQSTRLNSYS", "assay": "cell-based or functional assay", "units": {"hRXFP1/CHO-K1 cAMP EC50 (nM, avg)": "nM"}, "values": [{"binder": "B1", "hRXFP1/CHO-K1 cAMP EC50 (nM, avg)": 0.1}, {"binder": "B2", "hRXFP1/CHO-K1 cAMP EC50 (nM, avg)": 1.88}, {"binder": "B3", "hRXFP1/CHO-K1 cAMP EC50 (nM, avg)": 0.31}, {"binder": "B4", "hRXFP1/CHO-K1 cAMP EC50 (nM, avg)": 0.34}, {"binder": "B5", "hRXFP1/CHO-K1 cAMP EC50 (nM, avg)": 0.46}, {"binder": "B6", "hRXFP1/CHO-K1 cAMP EC50 (nM, avg)": 0.38}, {"binder": "B7", "hRXFP1/CHO-K1 cAMP EC50 (nM, avg)": 0.14}, {"binder": "B8", "hRXFP1/CHO-K1 cAMP EC50 (nM, avg)": 0.27}, {"binder": "B9", "hRXFP1/CHO-K1 cAMP EC50 (nM, avg)": 0.09}, {"binder": "B10", "hRXFP1/CHO-K1 cAMP EC50 (nM, avg)": 0.16}, {"binder": "B11", "hRXFP1/CHO-K1 cAMP EC50 (nM, avg)": 0.24}, {"binder": "B12", "hRXFP1/CHO-K1 cAMP EC50 (nM, avg)": 0.39}, {"binder": "B13", "hRXFP1/CHO-K1 cAMP EC50 (nM, avg)": 5.26}, {"binder": "B14", "hRXFP1/CHO-K1 cAMP EC50 (nM, avg)": 2.79}, {"binder": "B15", "hRXFP1/CHO-K1 cAMP EC50 (nM, avg)": 0.27}, {"binder": "B16", "hRXFP1/CHO-K1 cAMP EC50 (nM, avg)": 1.55}]}]}
